Values quoted from earlier work in PMC12442452.
Where two headings read alike, the source gives them in different places.

What was measured:
Cys25 [1] = biological target: T1, Cys25 (UniProt position 147, GQCGSCWAFSA); settings: ligand-free cruzain
His162 = His162 (UniProt position 284, SEQLDHGVLLV); test: kinetics; settings: apo (free) enzyme
Cys25 [2] = biological target: T1, Cys25; test: kinetics; settings: apo (free) enzyme
Cys25 [3] = biological target: Cys25 (UniProt position 158, GSCGSCWAFSA); settings: not stated (apo enzyme implied)

For “Cruzain (cruzipain, major cysteine protease) (Trypanosoma cruzi)”, the pKa (Cys25 [1]) is listed as 9.8, the pKa (His162) is listed as 6.6 and the pKa (Cys25 [2]) is listed as 9.7.
For “Papain (Carica papaya (inferred; not stated in the article))”, the pKa (Cys25 [3]) is listed as 3.3.
